Measured values from patent US20090192112A1 (REGENTS OF THE UNIVERSITY OF MICHIGAN, published 2009).

Experiments:
disheveled-1 (Dvl-1) = target: T1, disheveled-1 (Dvl-1) (human, UniProt O14640 1-695, limits assumed); assay: co-IP, BxPC3 lysate
T1 construct: Endogenous protein in cell lysate
T1 sequence (looked up): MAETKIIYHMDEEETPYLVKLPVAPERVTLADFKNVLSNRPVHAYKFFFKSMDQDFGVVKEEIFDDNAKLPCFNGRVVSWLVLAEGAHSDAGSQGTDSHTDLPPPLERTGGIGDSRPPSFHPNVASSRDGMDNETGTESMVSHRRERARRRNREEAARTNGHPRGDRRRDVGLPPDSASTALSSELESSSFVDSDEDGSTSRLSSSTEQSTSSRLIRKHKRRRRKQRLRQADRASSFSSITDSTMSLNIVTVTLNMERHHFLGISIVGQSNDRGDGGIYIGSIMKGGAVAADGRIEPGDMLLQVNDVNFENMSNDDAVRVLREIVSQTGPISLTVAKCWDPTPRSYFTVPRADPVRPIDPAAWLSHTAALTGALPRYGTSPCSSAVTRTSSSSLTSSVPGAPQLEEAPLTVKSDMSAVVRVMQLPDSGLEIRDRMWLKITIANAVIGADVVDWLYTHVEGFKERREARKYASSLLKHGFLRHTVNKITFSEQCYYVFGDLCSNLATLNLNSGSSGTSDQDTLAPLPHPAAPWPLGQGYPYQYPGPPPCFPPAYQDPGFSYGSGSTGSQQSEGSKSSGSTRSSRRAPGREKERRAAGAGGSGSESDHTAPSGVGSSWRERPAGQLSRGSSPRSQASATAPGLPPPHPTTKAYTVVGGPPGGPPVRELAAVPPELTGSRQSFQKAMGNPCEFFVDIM

disheveled-3 (Dvl-3) = target: T2, disheveled-3 (Dvl-3) (human, UniProt Q92997 1-716, limits assumed); assay: co-IP, BxPC3 lysate
T2 construct: Endogenous protein in cell lysate
T2 sequence (looked up): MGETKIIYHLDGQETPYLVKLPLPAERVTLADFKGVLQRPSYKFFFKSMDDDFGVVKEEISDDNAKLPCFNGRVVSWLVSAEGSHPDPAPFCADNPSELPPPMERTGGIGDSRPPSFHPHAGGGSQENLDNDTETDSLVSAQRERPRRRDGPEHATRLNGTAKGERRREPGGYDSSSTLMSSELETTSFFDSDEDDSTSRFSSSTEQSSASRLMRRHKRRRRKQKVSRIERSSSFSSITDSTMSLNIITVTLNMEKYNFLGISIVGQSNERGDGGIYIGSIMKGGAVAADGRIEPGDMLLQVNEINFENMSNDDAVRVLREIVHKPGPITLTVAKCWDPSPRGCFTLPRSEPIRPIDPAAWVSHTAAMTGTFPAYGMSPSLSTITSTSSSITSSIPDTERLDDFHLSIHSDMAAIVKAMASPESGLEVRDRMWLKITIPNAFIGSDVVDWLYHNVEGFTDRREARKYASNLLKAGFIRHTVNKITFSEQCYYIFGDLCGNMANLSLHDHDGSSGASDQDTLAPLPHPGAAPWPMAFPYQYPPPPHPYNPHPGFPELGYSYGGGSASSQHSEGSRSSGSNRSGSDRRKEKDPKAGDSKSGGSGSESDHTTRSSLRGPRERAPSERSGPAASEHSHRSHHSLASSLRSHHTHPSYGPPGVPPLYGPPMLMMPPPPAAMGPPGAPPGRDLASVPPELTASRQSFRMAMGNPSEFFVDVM

β-catenin = target: T3, β-catenin (human, UniProt P35222 2-781); assay: co-IP with β-catenin antibody, anti-ATDC western blot, BxPC3 lysate
T3 construct: Endogenous protein in cell lysate; also called beta-catenin
T3 sequence (looked up): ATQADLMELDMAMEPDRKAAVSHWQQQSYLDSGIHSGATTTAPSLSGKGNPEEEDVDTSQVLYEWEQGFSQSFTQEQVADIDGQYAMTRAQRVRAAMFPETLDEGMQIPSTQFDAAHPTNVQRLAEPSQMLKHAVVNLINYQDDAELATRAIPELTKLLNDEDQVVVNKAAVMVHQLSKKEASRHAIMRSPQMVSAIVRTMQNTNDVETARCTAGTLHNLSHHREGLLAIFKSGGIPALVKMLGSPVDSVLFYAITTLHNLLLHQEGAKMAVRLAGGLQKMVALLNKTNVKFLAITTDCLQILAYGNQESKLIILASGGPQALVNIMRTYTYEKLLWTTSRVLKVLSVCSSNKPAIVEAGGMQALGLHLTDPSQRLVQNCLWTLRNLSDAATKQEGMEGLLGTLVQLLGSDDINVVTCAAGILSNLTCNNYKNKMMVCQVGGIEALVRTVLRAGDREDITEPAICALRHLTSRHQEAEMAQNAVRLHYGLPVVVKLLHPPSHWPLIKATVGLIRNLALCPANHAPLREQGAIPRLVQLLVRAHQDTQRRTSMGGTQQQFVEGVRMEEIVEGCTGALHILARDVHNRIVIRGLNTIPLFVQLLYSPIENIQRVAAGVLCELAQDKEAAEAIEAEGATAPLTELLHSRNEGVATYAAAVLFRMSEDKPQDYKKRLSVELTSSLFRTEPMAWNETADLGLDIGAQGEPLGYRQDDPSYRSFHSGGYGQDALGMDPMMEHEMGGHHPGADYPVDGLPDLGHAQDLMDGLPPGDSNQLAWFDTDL
Description: HEK 293 cells with or without stable transfection of ATDC and BxPC-3 cells were lysed by sonicating for 5 sec in 1 ml of detergent free lysis buffer (PBS, 5 mM EDTA, 0.02% sodium azide, 10 mM iodoacetamide, 1 mM PMSF and 2 μg leupeptin) at 4° C. […] Antibody conjugated beads were prepared by combining 1 μg of polyclonal antibodies with 30 μl of a 50% protein A-Sepharose bead slurry in 0.5 ml of ice-cold PBS for 1 hr at 4° C. in a tube rotator and then were washed two times with 1 ml of lysis buffer. The antibodies used for co-immunoprecipitation were: Dvl-2, β-catenin (Cell Signaling Technology, Beverly, Mass.), axin, and GSK3β (Upstate, Temecula, Calif.). Cell lysates (500 μg) was incubated with the prepared beads and 10 μl of 10% BSA overnight at 4° C. The beads were washed four times with washing buffer (50 mM Tris-Hcl [pH 7.4], 300 mM NaCl, 5 mM EDTA, 0.02% sodium azide, 0.1% Triton X-100) and one time with ice-cold PBS. […] Images were visualized using an ECL detection system.
To ascertain the mechanism by which ATDC stabilizes β-catenin, it was first examined whether ATDC interacts with the components of the multi-protein complex that regulates β-catenin stability.

Measured: binding result

B1: ATDC (Ataxia-Telangiectasia Group D Complementing Gene, also known as TRIM29), endogenous (other, UniProt Q14134 1-588, looked up)
chain: MEAADASRSNGSSPEARDARSPSGPSGSLENGTKADGKDAKTTNGHGGEAAEGKSLGSALKPGEGRSALFAGNEWRRPIIQFVESGDDKNSNYFSMDSMEGKRSPYAGLQLGAAKKPPVTFAEKGELRKSIFSESRKPTVSIMEPGETRRNSYPRADTGLFSRSKSGSEEVLCDSCIGNKQKAVKSCLVCQASFCELHLKPHLEGAAFRDHQLLEPIRDFEARKCPVHGKTMELFCQTDQTCICYLCMFQEHKNHSTVTVEEAKAEKETELSLQKEQLQLKIIEIEDEAEKWQKEKDRIKSFTTNEKAILEQNFRDLVRDLEKQKEEVRAALEQREQDAVDQVKVIMDALDERAKVLHEDKQTREQLHSISDSVLFLQEFGALMSNYSLPPPLPTYHVLLEGEGLGQSLGNFKDDLLNVCMRHVEKMCKADLSRNFIERNHMENGGDHRYVNNYTNSFGGEWSAPDTMKRYSMYLTPKGGVRTSYQPSSPGRFTKETTQKNFNNLYGTKGNYTSRVWEYSSSIQNSDNDLPVVQGSSSFSLKGYPSLMRSQSPKAQPQTWKSGKQTMLSHYRPFYVNKGNGIGSNEAP
notes: Endogenous protein in lysates of human pancreatic cancer cell lines (BxPC3, Panc-1); also called endogenous ATDC
no binding: all assays above
